Laboratory results from patent US6127178A, “Apoptotic peptides” (The Regents of the University of California, priority 1998, dated 2000).
Entries after “also recorded” stand apart in the source; their conditions may differ.

How the values were obtained:
32D.3 myeloid cells [1] = assay: Viability by trypan blue dye exclusion in 32D.3 transfectants; assay type: cell-based, mouse; conditions: for rates of cell death: following withdrawal of IL-3, relative to control cells
Excerpt: cDNA constructs and establishment of cell lines. The mouse 32D.3 myeloid cell line was maintained in RPMI 1640 medium (GIBCO) supplemented with 10% fetal calf serum and 20U of IL-3 per ml as previously described (3, 12). The human IdI, Id2 and Id3 cDNAs (5, 6, 11) were introduced into the pMAM-Neo expression plasmid (Clontech, Palo Alto, Calif.) at the Xhol site. Mutations in Id2 and Id3 were generated by the polymerase chain reaction. To prepare an N-terminus deletion mutant, a 0.3 kb SalI-XhoI fragment lacking the region encoding amino acids 1-34 was inserted into the pMAM vector. A C-terminally truncated Id2 was prepared by removing a SmaI fragment containing cDNA corresponding to amino acids 93-135. Id2ΔHLH was prepared as previously described (34) and subcloned into the pMAM vector at the XhoI site. The primary structure of all mutants was confirmed by DNA sequencing. 32D.3 cells were electroporated as previously described with 10 μg of linearized plasmid DNA (12). Transfected cells were selected in medium containing 0.4/mg/ml G418 and single cell clones were isolated by limiting dilution, as well as pools of transfectants. To prepare additional cultures, drug-resistant clones and pools of clones were prepared by transfecting cells with pMAMNeo DNA alone and pMAMNeo containing Id2 cDNAs in the antisense orientation. 32D.3 cells were grown in suspension and maintained at equivalent exponential growth phases by seeding at 1×10^5 cells per ml culture medium. All subsequent analyses were performed using cells harvested at 0.5-1×10^6 cells per ml.
Viability and apoptosis assays. To investigate the effects of Id gene expression upon viability, cells growing exponentially in the presence of IL-3 (20 U/ml) were treated with dexamethasone for 16 hours. The cells were collected by centrifugation at 200×g for 10 min, washed twice in PBS, and resuspended in RPMI medium with 10% fetal bovine serum without IL-3. The number of viable cells was determined at various times after IL-3 withdrawal by trypan blue dye exclusion. […]

32D.3 myeloid cells [2] = assay: FACS analysis of subdiploid population in 32D.3 transfectants; assay type: cell-based, mouse; conditions: following IL-3 removal
Protocol: Id2 enhances apoptosis in 32D.3 myeloid cells following IL-3 withdrawal. Since Id2 levels in 32D.3 cells increased in association with IL-3 withdrawal, we examined the effect of increasing Id2 expression on the apoptotic response of these cells. 32D.3 myeloid progenitor cells were transfected with the dexamethasone (dex)-inducible pMAMNeo expression vector containing a full-length Id2 cDNA. The expression of Id2 in clones and pools of transfectants was determined in immunoblots, and we observed a 3-4 fold increase in Id2 protein levels upon treatment of the cells with dex for 16 hours as compared to cells transfected with vector DNA or with a pMAMNeo recombinant plasmid with Id2 in the antisense orientation.

U20S osteosarcoma cells = assay: DNA content by flow cytometry in tet-regulated U20S transfectants; assay type: cell-based; conditions: clone 9, four days after removal of tetracycline (1000 ng/ml), in serum
Protocol: To prepare a recombinant expression construct encoding Id2 which could be regulated by the addition of tetracycline to the culture media, the Kpn1/HindIII filled-in fragment of Id2 cDNA was inserted into the pUHD 10-3 vector (26) at EcoRI blunt-ended sites to prepare a tTA-responsive Id2 expression vector. DNA from pUHD-10-3Id2 was used in addition to DNA from pTet-TAk (GIBCO), encoding the tetracycline-regulatable tTA protein. Stable transfectants were prepared in the U20S osteosarcoma cell line by performing a 3 vector transfection using LipofectAmine (GIBCO) at a DNA ratio of 5:5:1 between pTet-Id2:ptet-TAk:pcDNA-3 and selected in the presence of DME/10%FBS/G418 (0.6 mg/ml)/tetracycline (5 μg/ml) media was changed after 2 days. […] To show expression of Id2, cells were trypsinized and plated with varying concentrations of tetracycline (0-1000 ng/ml).
To determine the extent of apoptosis in U20S cells transfected with pTet-Id2 DNA, cells were plated at a density of 5×10^5 cells per p100 plate and allowed to adhere for 24 hours in the presence of 1000 ng/ml tetracycline (tet). Then the media was changed to either 0 or 1000 ng/ml tet after 2 washes with PBS. The cells were maintained in the culture for 4 days before harvesting by trypsinization (floating cells were also harvested). […] DNA content was determined by flow cytometry on a FACSort (53).

Bax = assay: Immunoblot of apoptosis regulators in 32D.3 transfectants; assay type: cell-based, mouse
Protocol: Expression of Id genes and immunoblot analysis. Id gene expression was induced by addition of 1 μM dexamethasone (Sigma) for 16 hours. Cells were then collected at the indicated times by centrifugation, washed in PBS, and whole cell lysates were prepared by resuspending the pellets in RIPA buffer (150 mM NaCl, 1 mM EDTA, 1% Nonidet P-40, 1% sodium deoxycholate, 20 mM Tris-HCl pH 7.2) containing protease inhibitors (1 μM phenylmethyl-sulfonylfluoride, 0.01 μM benzamidine HCl, 1 μg/ml o-phenanthroline, and 0.5 μg/ml each of antipain, leupeptin, pepstatin A, and aprotinin). The lysates were then clarified by centrifugation and examined by 12.5% SDS-PAGE. Western blot analysis was carried out to detect expression of Id proteins using the sc-489 rabbit polyclonal antibody against Id2 (Santa Cruz Biotechnology, Santa Cruz, Calif.) and rabbit polyclonal antibodies generated against bacterially expressed Id1 or Id3 (C. Hernandez, unpublished). The expression of Bax proteins was monitored using a rabbit anti-Bax polyclonal sc-930 (Santa Cruz Biotechnology, Santa Cruz, Calif.). Briefly, blots were washed with blocking buffer [4% milk powder and 0.2% Tween-20 in phosphate-buffered saline (PBS)], incubated with anti-Id2 or Bax antibodies (used at a 1:1000 dilution in blocking buffer), washed, and incubated with peroxidase-conjugated […]. […]

32D.3 myeloid cells [3] = assay: Apoptosis (TUNEL) assay in 32D.3 transfectants; assay type: cell-based, mouse; conditions: following IL-3 withdrawal, dex-induced expression
Excerpt: cDNA constructs and establishment of cell lines. The mouse 32D.3 myeloid cell line was maintained in RPMI 1640 medium (GIBCO) supplemented with 10% fetal calf serum and 20U of IL-3 per ml as previously described (3, 12). The human IdI, Id2 and Id3 cDNAs (5, 6, 11) were introduced into the pMAM-Neo expression plasmid (Clontech, Palo Alto, Calif.) at the Xhol site. Mutations in Id2 and Id3 were generated by the polymerase chain reaction. To prepare an N-terminus deletion mutant, a 0.3 kb SalI-XhoI fragment lacking the region encoding amino acids 1-34 was inserted into the pMAM vector. A C-terminally truncated Id2 was prepared by removing a SmaI fragment containing cDNA corresponding to amino acids 93-135. Id2ΔHLH was prepared as previously described (34) and subcloned into the pMAM vector at the XhoI site. The primary structure of all mutants was confirmed by DNA sequencing. 32D.3 cells were electroporated as previously described with 10 μg of linearized plasmid DNA (12). […]
Expression of Id genes and immunoblot analysis. […] The expression of Bax proteins was monitored using a rabbit anti-Bax polyclonal sc-930 (Santa Cruz Biotechnology, Santa Cruz, Calif.). […]
Viability and apoptosis assays. […] The number of viable cells was determined at various times after IL-3 withdrawal by trypan blue dye exclusion. […]

B1: Id3: Id family helix-loop-helix protein expressed in 32D.3 cells from pMAMNeo (protein, UniProt P41133 1-119, looked up)
DNA-binding protein inhibitor …: MKALSPVRGCYEAVCCLSERSLAIARGRGKSPSTEEPLSLLDDMNHCYSRLRELVPGVPRGTQLSQVEILQRVIDYILDLQVVLAEPAPGPPDGPHLPIQTAELTPELVISKDKRSFCH
In the case of B1, the “rates of cell death” value (32D.3 myeloid cells [1]) is reported as “without effect”.

B2: Id2: full-length Id2 helix-loop-helix protein expressed from transfected cDNA (pMAMNeo dex-inducible or tet-regulated vector) (protein, UniProt Q02363 1-134, looked up)
chain: MKAFSPVRSVRKNSLSDHSLGISRSKTPVDDPMSLLYNMNDCYSKLKELVPSIPQNKKVSKMEILQHVIDYILDLQIALDSHPTIVSLHHQRPGQNQASRTPLTTLNTDISILSLQASEFPSELMSNDSKALCG
modifications: full-length
B2 was tested, and the “subdiploid population, indicative of apoptotic DNA fragmentation” value (32D.3 myeloid cells [2]) was “significantly augmented”, the “apoptotic cells with subdiploid DNA content” value (U20S osteosarcoma cells) was “a large proportion of apoptotic cells with subdiploid DNA content” and the “levels of other known regulators including Bad, Bcl-2, Bcl-XL and Bcl-XS” value (Bax; cultured in IL-3) was “no changes”. The Bax levels (Bax; cultured in IL-3, relative to vector transfected cells) was “elevated”, the “extent of apoptosis by the TUNEL assay” value (32D.3 myeloid cells [3]) was “significantly elevated apoptosis; also recorded: concentration-dependent; also recorded: expected enhancement in apoptosis” and the “rates of cell death” value (32D.3 myeloid cells [1]) was “dramatically accelerated rates of death”. For the same molecule, the effects on viability (32D.3 myeloid cells [1]; presence of IL-3, 16 hours of treatment with dex) was “only minor effects on viability”.
